Legend:
[1] = molecular target: T1, V. carteri f. nagariensis LOX (D8U0N8) (Volvox carteri, UniProt D8U0N8); assay: product analysis after reaction with ARA; format: cell-based; conditions: enzyme preparation not stated; products HETE and DiHETE
T1 construct: gene VOLCADRAFT_105417; synthesized gene in pET-28a(+), expressed in E. coli ER2566
T1 sequence (D8U0N8 1-1056): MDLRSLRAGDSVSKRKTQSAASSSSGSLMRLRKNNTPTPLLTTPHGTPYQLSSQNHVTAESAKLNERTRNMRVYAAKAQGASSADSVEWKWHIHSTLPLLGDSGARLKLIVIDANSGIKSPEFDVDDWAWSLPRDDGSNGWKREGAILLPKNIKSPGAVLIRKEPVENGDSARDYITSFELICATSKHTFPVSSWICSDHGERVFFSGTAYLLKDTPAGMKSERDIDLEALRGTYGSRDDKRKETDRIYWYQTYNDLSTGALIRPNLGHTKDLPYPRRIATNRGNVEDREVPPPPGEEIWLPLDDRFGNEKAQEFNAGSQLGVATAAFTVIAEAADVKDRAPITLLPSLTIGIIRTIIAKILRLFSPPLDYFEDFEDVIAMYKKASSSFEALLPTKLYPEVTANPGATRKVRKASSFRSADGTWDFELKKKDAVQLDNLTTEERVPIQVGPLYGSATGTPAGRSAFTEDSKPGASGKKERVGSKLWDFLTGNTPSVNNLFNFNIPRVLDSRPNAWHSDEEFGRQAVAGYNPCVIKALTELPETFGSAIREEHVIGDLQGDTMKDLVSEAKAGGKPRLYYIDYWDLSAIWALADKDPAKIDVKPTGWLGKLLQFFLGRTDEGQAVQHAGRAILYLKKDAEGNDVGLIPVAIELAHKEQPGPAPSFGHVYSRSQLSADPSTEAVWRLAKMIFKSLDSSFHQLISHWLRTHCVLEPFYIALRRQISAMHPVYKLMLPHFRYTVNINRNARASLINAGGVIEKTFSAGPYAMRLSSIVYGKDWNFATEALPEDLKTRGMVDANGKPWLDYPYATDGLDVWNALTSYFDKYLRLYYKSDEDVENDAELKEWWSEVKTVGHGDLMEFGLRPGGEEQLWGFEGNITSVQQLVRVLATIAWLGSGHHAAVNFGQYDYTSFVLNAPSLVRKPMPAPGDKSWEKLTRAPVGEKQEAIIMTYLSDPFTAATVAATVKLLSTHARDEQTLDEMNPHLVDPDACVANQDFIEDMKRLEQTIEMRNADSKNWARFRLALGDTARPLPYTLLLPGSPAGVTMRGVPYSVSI

purified protein [2] = substrate: CCCCC/C=C\C/C=C\C/C=C\C/C=C\CCCC(=O)O; assay: purified protein; format: biochemical, Chlamydomonas incerta; conditions: 50 mM HEPPS pH 7.5, 35°C, 5 min, substrate 0.05-0.2 mM, product 15S-HETE (first oxygenation)
purified protein [3] = substrate: CC/C=C\C/C=C\C/C=C\C/C=C\C/C=C\C/C=C\CCC(=O)O; assay: purified protein; format: biochemical, Chlamydomonas incerta; conditions: 50 mM HEPPS pH 7.5, 35°C, 5 min, substrate 0.05-0.2 mM, product 17S-HDHA (first oxygenation)
purified protein [4] = substrate: CC/C=C\C/C=C\C/C=C\C/C=C\C/C=C\CCCC(=O)O; assay: purified protein; format: biochemical, Chlamydomonas incerta; conditions: 50 mM HEPPS pH 7.5, 35°C, 5 min, substrate 0.05-0.2 mM, product 15S-HEPA (first oxygenation)

Row | Molecule | product analysis after reaction with ARA [1] | Km (purified protein [2]) [µM] | kcat (purified protein [2]) [s⁻¹] | kcat/Km (purified protein [2]) [M⁻¹ s⁻¹] | Km (purified protein [3]) [µM] | kcat (purified protein [3]) [s⁻¹] | kcat/Km (purified protein [3]) [M⁻¹ s⁻¹] | Km (purified protein [4]) [µM] | kcat (purified protein [4]) [s⁻¹] | kcat/Km (purified protein [4]) [M⁻¹ s⁻¹]
1 | CCCCC/C=C\C/C=C\C/C=C\C/C=C\CCCC(=O)O [ARA] | only those from V. carteri f. nagariensis (D8U0N8) |  |  |  |  |  |  |  |  | 
2 | C. incerta 15S-LOX (Chlamydomonas incerta) (protein, synthesized gene in pET-28a(+), E. coli ER2566, His-Trap purified, His6 tag kept; 1016 residues plus six His, 109,248 (kDa [sic]), dimer 219 kDa) MNGAHSPGEVAVWKASIESSAPLLGDTGTRLEIVVIDLDTDRRSEPTNVDSWRPPVLESGPGSSTARSGASSGSGTSGWKREGRLPLPADFLTPGAVLVRKSRTVDGNASVDFIGTIKLVSATKVFHFPVHSWVSSDHDWRVFFEGTAYLPAHTPPSLRDERQRELQELQGTPATRTLERRPADRIYWYQTYDDLSSAGEGGYRPALGATARRPYPRRIATNRGAADGHPDREKPPVKAGDKPWLPYDEQFSFDKAADFNGDTLTAALPAAFSFIAEAGDQRHLTWLNLLPTAVHGLVRNVLRAVLGYAEPPAANFDSFEDVLAFFGEDAASRGSSMAPTQLYPAGQEAAMKGFGAPHDPRNPAPFKTASGAWDFRLNSAAAAAINDQIAADRVGPVPDSATGGPSSGAATAATAFAATAAAATAAGAPAAAITAPPQPGVPNLIGLLGSAVWRRLTNDPSHDINDLLYFPVPRVVDGRPDAWYTDEEYGRQALAGYHPTAITALTQLPEAFGSAIRAHHVEAELQGSSLEALVAAAAGGAKPRLYLIDHWDLSAYWQEAEEEAEAARKAGRKPPSAVQHAGRCLFYLRKDEVTGEDTALVPIAIELAHPGTHKASNGTSAPLPPTAGEVYARSELVASPQTLAVWRLAKAVFRSLDTSIHQLVAHFNRTHAALEPFLIAMRRQMSVMHPITKLMLPHFRYTLNINRNARASLINAGGIIEKTFSAGPFAMRLASAVYGKSWTFAGQALPEDLRERGMLDAAGRPWLDYPFAIDGLDTWAALTAYFDQYVSLYYDGDGAVLEDGELQAWWDEVKTEGHPDIVAFGLKSEQQVWGFTGPIAKRSDLVHVLATIAWLASGHHAAVNFGQYDFTGLILNASSLVRRPMPAPKEPAYKELTGAALGPPQERVFMTYLADPFSAVQVLATVKLLSAHARDEHTLDEANDYIVDPAAREANRAFIAAVKQLESAIETRNADPANWARYGLAAGTAAPLPYTLLMASSPPGVTMRGVPYSVSI |  | 101 ± 0.02 | 149 ± 0.2 | 1.47e+06 ± 100000 | 98.5 ± 0.1 | 121 ± 0.2 | 980000 ± 100000 | 191 ± 0.1 | 143 ± 0.2 | 750000 ± 100000

Source: article PMC12152530, “Efficient One‐Step Production of 7S,17S‐ and 10S,17S‐Dihydroxydocosahexaenoic Acids by a Double‐Oxygenating 15S‐Lipoxygenase From Chlamydomonas incerta” (Biotechnology and Bioengineering, 2025)
